In article PMC12063518, “IAT4, a New Indolamine N‐Acetyltransferase in Saccharomyces cerevisiae Involved in Melatonin Biosynthesis” (Journal of Pineal Research, 2025) one finds Km data, which are given here for three proteins.

Common to all, as to assay: purified protein
Substrate in data set [1]: NCCc1c[nH]c2ccc(O)cc12
Format: biochemical, Saccharomyces cerevisiae. The settings on record: 0.2 mM acetyl-CoA, pH 8.8, 37 °C.

Substrate in data set [2]: NCCc1c[nH]c2ccccc12
The data set is classed as biochemical, Saccharomyces cerevisiae. Conditions: 0.2 mM acetyl-CoA, pH 8.8, 37 °C, 15 min.

Substrate in data set [3]: COc1ccc2[nH]cc(CCN)c2c1
The data set is classed as biochemical, Saccharomyces cerevisiae. Conditions: 0.2 mM acetyl-CoA, pH 8.8, 37 °C, 15 min.

Substrate in data set [4]: NCCc1c[nH]c2ccc(O)cc12
The settings on record: 0.2 mM acetyl-CoA, pH 8.8, 37 °C, 15 min enzymatic assay as Iat4, fit R2 = 0.825.

B1: Iat4 (Saccharomyces cerevisiae S288C) (protein)
chain: MSFENKLPTPLENNDAKGHMVCTLNKTTDARRAAETLSIAFSNSPAFHFICKKILNIPLAEKVPTRTITTDIISPFLDSPYGEISEVNTFDAVAVWSLPPHVPKARSNDAKFNKDFIDDLNARVKQVIPNGINYYYLFCIGKNLNEKGIRGSVRTIFEEYKRRADEENCAIVLEAIAEHAKSVYEYFGFRNYMTFKYGECEVDSNGNCDPNGEGFTAYLMIYHKDGNKVLKE
notes: GST fusion from pGEX-5X-1, E. coli Rosetta (DE3), glutathione Sepharose; native protein 232 aa
As usually defined, the Km is the concentration of substrate that gives half-maximal velocity. Regarding B1, the Km amounted to 0.93 mM in “purified protein [1]” (15 min), 356 µM in the data set “purified protein [2]” and 353 µM in “purified protein [3]”.

B2: Paa1 (Saccharomyces cerevisiae S288C) (protein)
chain: MASSSSTLPLHMYIRPLIIEDLKQILNLESQGFPPNERASEEIISFRLINCPELCSGLFIREIEGKEVKKETLIGHIMGTKIPHEYITIESMGKLQVESSNHIGIHSVVIKPEYQKKNLATLLLTDYIQKLSNQEIGNKIVLIAHEPLIPFYERVGFKIIAENTNVAKDKNFAEQKWIDMERELIKEEYDN
On to B2, for which, in “purified protein [4]”, the Km is 4250 ± 1460 µM.

B3: Hpa2 (Saccharomyces cerevisiae S288C) (protein)
chain: MSNTSEDNITVRFVTENDKEGWQRLWKSYQDFYEVSFPDDLDDFNFGRFLDPNIKMWAAVAVESSSEKIIGMINFFNHMTTWDFKDKIYINDLYVDENSRVKGAGGKLIQFVYDEADKLGTPSVYWCTDESNHRAQLLYVKVGYKAPKILYKRKGY
notes: same enzymatic assay as Iat4
On to B3, for which, in the data set “purified protein [1]” (15 min enzymatic assay as Iat4, unit not given, mM from the preceding sentence), the Km stood at 6.82 ± 1.62 mM.
